Data published in publication PMC9595563 (2022).

Biological target: SARS-CoV-2 spike RBD-Fc recombinant protein (ELISA) (SARS-CoV-2, UniProt P0DTC2)
Assay: ELISA

B1: LRRC15-His (natural protein)
chain: YHGCPSECTCSRASQVECTGARIVAVPTPLPWNAMSLQILNTHITELNESPFLNISALIALRIEKNELSRITPGAFRNLGSLRYLSLANNKLQVLPIGLFQGLDSLESLLLSSNQLLQIQPAHFSQCSNLKELQLHGNHLEYIPDGAFDHLVGLTKLNLGKNSLTHISPRVFQHLGNLQVLRLYENRLTDIPMGTFDGLVNLQELALQQNQIGLLSPGLFHNNHNLQRLYLSNNHISQLPPSVFMQLPQLNRLTLFGNSLKELSPGIFGPMPNLRELWLYDNHISSLPDNVFSNLRQLQVLILSRNQISFISPGAFNGLTELRELSLHTNALQDLDGNVFRMLANLQNISLQNNRLRQLPGNIFANVNGLMAIQLQNNQLENLPLGIFDHLGKLCELRLYDNPWRCDSDILPLRNWLLLNQPRLGTDTVPVCFSPANVRGQSLIIINVNVAVPSVHVPEVPSYPETPWYPDTPSYPDTTSVSSTTELTSPVEDYTDLTTIQVTDDRSVWGMTQAQSG
Kd: 165 nM
